In publication PMC11549089 one finds stoichiometry N data, which are given here for one substance.

In this test the target is influenza A virus RNA polymerase (FluAPol) heterotrimer of human influenza A/NT/60/1968 (H3N2) (human influenza A/NT/60/1968 (H3N2) virus) (UniProt P03429). Description: cryo-EM structure.

What is called stoichiometry N is a count of units in the complex or per binding partner.

Several values for one entry are separate records, joined by “and”; a condition that tells them apart may be missing. Identical values can stand only once.

In the case of “influenza A virus RNA polymerase (FluAPol) heterotrimer of human influenza A/NT/60/1968 (H3N2) (from UniProt P03429) (complex)”, the stoichiometry N was 2 and 6.
